Positions count from the first letter of the chain named. Like-named read-outs stand apart in the source and are kept apart here.
Legend:
[1] = biological target: T1, human FcγRIIaH extracellular domain with C-terminal His-tag (human, UniProt P12318 34-217); assay: SPR, antibody captured, FcγR analyte
T1 construct: also called human FcgRIIaH; FcγRIIa (type H)
T1 sequence: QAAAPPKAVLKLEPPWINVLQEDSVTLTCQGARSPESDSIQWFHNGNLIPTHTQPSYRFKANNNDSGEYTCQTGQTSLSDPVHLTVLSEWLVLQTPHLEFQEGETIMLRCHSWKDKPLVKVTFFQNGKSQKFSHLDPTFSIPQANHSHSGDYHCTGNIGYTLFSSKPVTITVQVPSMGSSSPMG

[2] = biological target: T2, cynomolgus monkey FcγRIIIaS extracellular domain with C-terminal His-tag (cynomolgus monkey, UniProt Q8SPW2 21-206 at identity 1.00)); assay: SPR, antibody captured, FcγR analyte
T2 construct: also called cyno FcgRIIIaS; cynoFcγRIIIaS
T2 chain: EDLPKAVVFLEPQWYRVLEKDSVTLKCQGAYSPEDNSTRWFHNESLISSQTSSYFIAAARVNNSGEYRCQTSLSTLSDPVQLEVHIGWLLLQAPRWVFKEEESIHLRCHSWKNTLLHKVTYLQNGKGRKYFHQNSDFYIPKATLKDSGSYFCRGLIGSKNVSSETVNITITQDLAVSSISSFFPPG

[3] = biological target: T3, human FcγRIIb extracellular domain with C-terminal His-tag (human, UniProt P31994 43-217); assay: SPR, KD(SG1)/KD(variant)
T3 construct: also called human FcgRIIb
T3 sequence: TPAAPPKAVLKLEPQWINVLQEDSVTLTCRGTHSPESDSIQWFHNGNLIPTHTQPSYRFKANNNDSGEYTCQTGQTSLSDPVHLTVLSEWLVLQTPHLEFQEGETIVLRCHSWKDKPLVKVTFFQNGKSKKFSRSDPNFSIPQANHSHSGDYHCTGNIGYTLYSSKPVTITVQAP

[4] = biological target: T4, human FcγRIIaR extracellular domain with C-terminal His-tag (human, UniProt P12318 34-217); assay: SPR, KD(SG1)/KD(variant)
T4 construct: also called human FcgRIIaR; FcγRIIa (type R)
T4 chain: T1 sequence with H134R

[5] = biological target: T5, cynomolgus monkey FcγRIIa2 extracellular domain with C-terminal His-tag (cynomolgus monkey); assay: SPR, KD(SG1)/KD(variant)
T5 construct: also called cyno FcgRIIa2; cynoFcγRIIa2
T5 chain: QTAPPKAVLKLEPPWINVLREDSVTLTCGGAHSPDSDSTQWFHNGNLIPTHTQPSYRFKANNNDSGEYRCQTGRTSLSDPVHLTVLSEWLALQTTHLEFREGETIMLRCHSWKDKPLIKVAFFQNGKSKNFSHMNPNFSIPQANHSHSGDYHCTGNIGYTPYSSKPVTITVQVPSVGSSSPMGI

[6] = biological target: T6, human FcγRIIIaV extracellular domain with C-terminal His-tag (human, UniProt P08637 17-208); assay: SPR, KD(SG1)/KD(variant)
T6 construct: also called human FcgRIIIaV

[7] = biological target: T2, cynomolgus monkey FcγRIIIaS …; assay: SPR, KD(SG1)/KD(variant)
[8] = biological target: T2, cynomolgus monkey FcγRIIIaS …; assay: SPR, antibody captured, FcγR analyte
Method: (§1) The kinetic analysis of interactions between these antibodies and FcγR was carried out using BIACORE® T200 or BIACORE® 4000 (GE Healthcare). HBS-EP+ (GE Healthcare) was used as the running buffer, and the measurement temperature was set to 25° C. […] After the measurement, the antibody captured on the chip was washed off by allowing reaction with 10 mM glycine-HCl, pH1.5 and 25 mM NaOH so that the chip was regenerated and used repeatedly. The sensorgrams obtained as measurement results were analyzed by the 1:1 Langmuir binding model using the BIACORE® Evaluation Software to calculate the binding rate constant ka (L/mol/s) and dissociation rate constant kd (1/s), and the dissociation constant KD (mol/L) was calculated from these values. […] Regarding such interactions, KD values were calculated using the following 1:1 binding model described in BIACORE® T100 Software Handbook BR1006-48 Edition AE.

[9] = biological target: T2, cynomolgus monkey FcγRIIIaS …; assay: SPR, KD(SG1)/KD(variant)
Method: as §1

[10] = biological target: T7, human FcγRIIb extracellular domain, C-terminal His-tag (human, UniProt P31994 43-217); assay: SPR (BIACORE), antibody captured, FcgR analyte, 25 C
T7 construct: also called FcgRIIb
T7 sequence: T3 sequence

[11] = biological target: T8, human FcγRIIaR extracellular domain, His-tagged (human, UniProt P12318 34-217); assay: SPR Biacore, antibody captured, FcgR analyte
T8 construct: also called human FcγRIIa (type R); FcgRIIaR; not shown: C-terminal His-tag
T8 chain: T1 sequence with H134R

[12] = biological target: T9, human FcγRIIb extracellular domain, His-tagged (human, UniProt P31994 43-217); assay: SPR Biacore, antibody captured, FcgR analyte
T9 construct: also called FcgRIIb (human); not shown: C-terminal His-tag
T9 sequence: T3 sequence

[13] = biological target: T10, cynomolgus monkey FcγRIIa2 extracellular domain, His-tagged (cynomolgus monkey); assay: SPR Biacore, antibody captured, FcgR analyte
T10 construct: also called cyno FcγRIIa2; cynoFcgRIIa2; not shown: C-terminal His-tag
T10 chain: T5 chain

[14] = biological target: T9, human FcγRIIb extracellular domain, …; assay: SPR Biacore, KD(SG1)/KD(variant)
[15] = biological target: T11, cynomolgus monkey FcγRIIIaS extracellular domain, His-tagged (cynomolgus monkey, UniProt Q8SPW2 21-206 at identity 1.00)); assay: SPR Biacore, antibody captured, FcgR analyte
T11 construct: also called cyno FcγRIIIaS; cynoFcγRIIIaS; not shown: C-terminal His-tag
T11 chain: T2 chain

Human latent myostatin [16] = biological target: T12, Human latent myostatin (human, UniProt O14793 25-266; O14793 267-375); assay: SPR avidity condition (capture 185 RU), pH5.8, 37C; pH 5.8
T12 construct: Biotinylated in the ELISAs; also called human myostatin latent form
T12 sequence 1: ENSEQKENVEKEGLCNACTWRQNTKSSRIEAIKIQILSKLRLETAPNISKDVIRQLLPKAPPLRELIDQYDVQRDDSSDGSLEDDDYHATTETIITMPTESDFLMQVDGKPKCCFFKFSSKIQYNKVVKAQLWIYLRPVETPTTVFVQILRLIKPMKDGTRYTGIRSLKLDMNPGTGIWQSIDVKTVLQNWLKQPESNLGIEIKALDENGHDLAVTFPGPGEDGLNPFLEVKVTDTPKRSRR
T12 sequence 2: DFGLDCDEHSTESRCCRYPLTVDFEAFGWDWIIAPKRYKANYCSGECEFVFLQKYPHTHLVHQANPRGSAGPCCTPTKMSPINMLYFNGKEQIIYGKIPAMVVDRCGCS
Method: (§2) The kinetic parameters of anti-latent myostatin antibodies against human, cynomolgus monkey (cyno), and mouse latent myostatin were assessed at 37° C. at pH7.4 using a BIACORE® T200 instrument (GE Healthcare). ProA/G (Pierce) was immobilized onto all flow cells of a CM4 chip using amine coupling kit (GE Healthcare). Anti-latent myostatin antibody and analytes were prepared in ACES pH7.4 (20 mM ACES, 150 mM NaCl, 1.2 mM CaCl₂), 0.05% TWEEN® 20, 0.005% NaN3). […] The sensor surface was regenerated with 25 mM NaOH. Kinetic parameters were determined by processing and fitting the data to a 1:1 binding model using BIACORE® T200 Evaluation software, version 2.0 (GE Healthcare).
(§3) All experimental settings were the same as in Example 7, except that measurements were also performed in ACES pH5.8 buffer in addition to ACES pH7.4 condition. Some antibodies were only measured against human latent myostatin. Antibody capture level was aimed at 185 RU and 18.5 RU, for avidity and affinity assay, respectively. Kinetic parameters were determined using 1:1 Binding fitting using BIACORE® T200 Evaluation software, version 2.0 (GE Healthcare).

Human latent myostatin [17] = biological target: T12, Human latent myostatin; assay: SPR affinity condition (capture 18.5 RU), pH7.4, 37C
Method: as §2, §3

T6 sequence (P08637 17-208 F176V): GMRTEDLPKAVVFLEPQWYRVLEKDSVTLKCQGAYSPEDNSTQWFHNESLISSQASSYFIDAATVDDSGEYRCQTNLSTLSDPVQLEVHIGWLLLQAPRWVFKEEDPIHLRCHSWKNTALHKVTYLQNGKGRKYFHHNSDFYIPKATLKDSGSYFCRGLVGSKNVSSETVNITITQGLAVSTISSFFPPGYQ

B1: MS1032LO06-MY351 (antibody, human IgG1, kappa)
heavy: QVTLKESGPVLVKPTETLTLTCTVSGIDLSHDDISWVRQAPGKGLEWVGIISYAGSTYYASWAKGRLTISKDTSKNQVVLTMTNMDPVDTATYYCARGVPAYSHGGDLWGQGTLVTVSSASTKGPSVFPLAPSSKSTSGGTAALGCLVKDYFPEPVTVSWNSGALTSGVHTFPAVLQSSGLYSLSSVVTVPSSSLGTQTYICNVNHKPSNTKVDKKVEPKSCDKTHTCPPCPAPELLNGPSVFLFPPKPKDTLMISRTPEVTCVVVDVSDEDPEVKFNWYVDGVEVHNAKTKPREEQYNSTYRVVSVLTVLHRDWLNGKEYKCKVSNKALPKPIEKTISKAKGQPREPQVYTLPPSREEMTKNQVSLTCLVKGFYPSDIAVEWESNGQPENNYKTTPPVLDSDGSFFLYSKLTVKKSRWQQGNVFSCSVMHEALHNHYTQKSLSLSP
light: DIVMTQSPATLSLSPGERATLSCTSSQSVYHANWLSWFQQKPGQPPKLLIYWASTLAYGVPSRFSGSGSGTDFTLTISSLQPEDAATYYCAGGYGGGRYAFGQGTKVEIKRTVAAPSVFIFPPSDEQLKSGTASVVCLLNNFYPREAKVQWKVDNALQSGNSQESVTEQDSKDSTYSLSSTLTLSKADYEKHKVYACEVTHQGLSSPVTKSFNRGEC
notes: also called M103205H795-MY351; copies: 2 + 2
- Kd [1]: 0.012 µM
- Kd [2]: 4.1 µM
- KD fold (SG1 = 1) [3]: 4.7 fold
- KD fold (SG1 = 1) [4]: 0.8 fold
- KD fold (SG1 = 1) [5]: 3.8 fold
- KD fold (SG1 = 1) [6]: 0.03 fold
- KD fold (SG1 = 1) [7]: 0.07 fold
- Kd [8]: 5.2 µM
- KD fold (SG1 = 1) [9]: 0.07 fold

B2: MS103240H795-SG1/M103202L1045-SK1 (antibody, human IgG1, kappa)
heavy: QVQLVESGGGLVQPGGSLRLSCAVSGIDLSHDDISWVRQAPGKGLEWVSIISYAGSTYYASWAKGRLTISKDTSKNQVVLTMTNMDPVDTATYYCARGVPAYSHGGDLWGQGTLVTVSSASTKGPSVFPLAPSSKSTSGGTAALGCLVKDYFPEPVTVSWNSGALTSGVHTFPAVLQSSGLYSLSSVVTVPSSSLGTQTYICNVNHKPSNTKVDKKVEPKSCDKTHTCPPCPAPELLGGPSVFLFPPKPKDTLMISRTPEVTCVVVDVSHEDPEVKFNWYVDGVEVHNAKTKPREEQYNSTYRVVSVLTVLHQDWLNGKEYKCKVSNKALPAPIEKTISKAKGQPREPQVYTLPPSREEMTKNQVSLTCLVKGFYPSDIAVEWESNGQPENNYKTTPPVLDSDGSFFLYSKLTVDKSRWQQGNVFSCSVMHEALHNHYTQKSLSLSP
light: B1 light with S25T, A32E
notes: Parent of the Fc variants; anti-latent myostatin variable region, human IgG1-type constant region SG1; also called MS1032LO19-SG1; copies: 2 + 2
- Kd [10]: 5.8 µM

B3: M103205H795-MY074/M103202L889-SK1 (antibody, human IgG1, kappa, name in EU numbering)
heavy: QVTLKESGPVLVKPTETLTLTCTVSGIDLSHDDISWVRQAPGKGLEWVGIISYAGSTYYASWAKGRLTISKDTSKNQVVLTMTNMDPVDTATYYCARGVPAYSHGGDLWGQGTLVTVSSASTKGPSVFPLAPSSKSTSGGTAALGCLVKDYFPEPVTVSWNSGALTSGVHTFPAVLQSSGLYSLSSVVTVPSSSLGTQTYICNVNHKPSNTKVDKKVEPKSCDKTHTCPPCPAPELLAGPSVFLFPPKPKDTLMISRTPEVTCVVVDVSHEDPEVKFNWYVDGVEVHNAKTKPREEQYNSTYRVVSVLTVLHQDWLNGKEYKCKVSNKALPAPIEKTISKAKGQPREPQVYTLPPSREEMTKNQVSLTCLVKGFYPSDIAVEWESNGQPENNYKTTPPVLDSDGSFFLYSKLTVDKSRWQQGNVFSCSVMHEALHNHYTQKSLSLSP
light: B1 light
notes: Substitution introduced into M103205H795-SG1; EU numbering
- Kd [11]: 0.21 µM
- Kd [12]: 3.6 µM
- Kd [13]: 2.3 µM

B4: M103205H795-MY001/M103202L889-SK1 (antibody, human IgG1, kappa, name in EU numbering)
heavy: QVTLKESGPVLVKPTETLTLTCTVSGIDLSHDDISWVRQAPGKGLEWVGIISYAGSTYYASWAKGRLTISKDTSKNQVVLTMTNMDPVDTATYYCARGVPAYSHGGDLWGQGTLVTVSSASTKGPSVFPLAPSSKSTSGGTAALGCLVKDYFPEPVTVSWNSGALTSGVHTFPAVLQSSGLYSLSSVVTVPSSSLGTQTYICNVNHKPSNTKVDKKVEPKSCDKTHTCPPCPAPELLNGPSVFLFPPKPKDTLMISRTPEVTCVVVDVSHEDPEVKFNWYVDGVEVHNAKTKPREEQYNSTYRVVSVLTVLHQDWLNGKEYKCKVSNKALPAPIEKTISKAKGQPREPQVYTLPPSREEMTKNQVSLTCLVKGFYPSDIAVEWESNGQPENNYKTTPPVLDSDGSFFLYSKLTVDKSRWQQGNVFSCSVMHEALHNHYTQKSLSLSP
light: B1 light
notes: as for B3
- KD fold (SG1 = 1) [14]: 6.6 fold
- Kd [15]: 12 µM

B5: MS_M103205H707-SG1/M103202L802-SK1 (antibody, human IgG1, kappa, V domains shown)
VH: QVTLKESGPVLVKPTETLTLTCTVSGIDLSHYDISWVRQAPGKGLEWVGIISYAGSTYYASWAKGRLTISKDTSKNQVVLTMTNMDPVDTATYYCARGVPAYSHGGDLWGQGTLVTVSS
VL: DIVMTQSPATLSLSPGERATLSCTSSQSVYHDNWLSWFQQKPGQPPKLLIYWASTLAYGVPSRFSGSGSGTDFTLTISSLQPEDAATYYCAGGYGGGLYAFGQGTKVEIKR
notes: also called MS1032LO04-SG1
- kon (Human latent myostatin [16]): 781000 M⁻¹ s⁻¹
- kon (Human latent myostatin [17]): 1.54e+06 M⁻¹ s⁻¹
